Source: paper PMC7617285, “Dehydrogenase versus oxidase function: the interplay between substrate binding and flavin microenvironment” (ACS catalysis, 2025)

B1: EUGO (eugenol oxidase from Rhodococcus jostii RHA1) (Rhodococcus jostii RHA1) (protein)
chain: MTRTLPPGVSDERFDAALQRFRDVVGDKWVLSTADELEAFRDPYPVGAAEANLPSAVVSPESTEQVQDIVRIANEYGIPLSPVSTGKNNGYGGAAPRLSGSVIVKTGERMNRILEVNEKYGYALLEPGVTYFDLYEYLQSHDSGLMLDCPDLGWGSVVGNTLDRGVGYTPYGDHFMWQTGLEVVLPQGEVMRTGMGALPGSDAWQLFPYGFGPFPDGMFTQSNLGIVTKMGIALMQRPPASQSFLITFDKEEDLEQIVDIMLPLRINMAPLQNVPVLRNIFMDAAAVSKRTEWFDGDGPMPAEAIERMKKDLDLGFWNFYGTLYGPPPLIEMYYGMIKEAFGKIPGARFFTHEERDDRGGHVLQDRHKINNGIPSLDELQLLDWVPNGGHIGFSPVSAPDGREAMKQFEMVRNRANEYNKDYAAQFIIGLREMHHVCLFIYDTAIPEAREEILQMTKVLVREAAEAGYGEYRTHNALMDDVMATFNWGDGALLKFHEKIKDALDPNGIIAPGKSGIWSQRFRGQNL
notes: covalent FAD on H390
B2: VAD (vanillyl-alcohol dehydrogenase from Marinicaulis flavus) (Hyphococcus luteus; P151I) (protein)
chain: MAAPLPEGVSAEAMSSALDRFARIVGADWVFTEDKITPYEDPYTISNDETEHRPYAAVAPASTEEVQEIVRVANEFGVPLWPVSRGKNFAYGGAAPVMSGTVVLDMNRMNRILEVNEEFGYALVEPGVSYFELYDYIQEKGLKLWIDVPDIGWGSVVGNALDHGIGYTPYGDHFAMQCGMEVVLPNGEVVRTGMGAMPGNNTWQLFKYGYGPYVDGIFSQSNFGVVTKMGIWLMPEPAGYRPYLITFENEDDIETVTERLRPLKVAGVIQNGATVRSLVLDAAITRTKSQYYDGDGPIPPSVAKTMMADLDLGMWNFCGALYGPPPVMDTLWTAIRDSFADIPGVKFYFPEDRRHKVDLLLHRAETMKGVPKLTEFNFLNWDGGGGHVGFSPVSPITGKDAIKQYNMVSSRVREYGFDYMGLLAIGWRDLHHVTVIVYDKTDPDERKKLDELFNILVDEAAAEGYGEYRTHIRYMDRIAKTYSWNDNALWKMHETIKDALDPNGILAPGKSGIWGKNRRKA
notes: SUMO tag cleaved for crystals; covalent FAD on H387; dimer
B3: VAD (vanillyl-alcohol dehydrogenase from Marinicaulis flavus) (Hyphococcus luteus; P151V) (protein)
chain: MAAPLPEGVSAEAMSSALDRFARIVGADWVFTEDKITPYEDPYTISNDETEHRPYAAVAPASTEEVQEIVRVANEFGVPLWPVSRGKNFAYGGAAPVMSGTVVLDMNRMNRILEVNEEFGYALVEPGVSYFELYDYIQEKGLKLWIDVPDVGWGSVVGNALDHGIGYTPYGDHFAMQCGMEVVLPNGEVVRTGMGAMPGNNTWQLFKYGYGPYVDGIFSQSNFGVVTKMGIWLMPEPAGYRPYLITFENEDDIETVTERLRPLKVAGVIQNGATVRSLVLDAAITRTKSQYYDGDGPIPPSVAKTMMADLDLGMWNFCGALYGPPPVMDTLWTAIRDSFADIPGVKFYFPEDRRHKVDLLLHRAETMKGVPKLTEFNFLNWDGGGGHVGFSPVSPITGKDAIKQYNMVSSRVREYGFDYMGLLAIGWRDLHHVTVIVYDKTDPDERKKLDELFNILVDEAAAEGYGEYRTHIRYMDRIAKTYSWNDNALWKMHETIKDALDPNGILAPGKSGIWGKNRRKA
notes: as for B2
B4: VAD (vanillyl-alcohol dehydrogenase from Marinicaulis flavus) (Hyphococcus luteus; P151T) (protein)
chain: MAAPLPEGVSAEAMSSALDRFARIVGADWVFTEDKITPYEDPYTISNDETEHRPYAAVAPASTEEVQEIVRVANEFGVPLWPVSRGKNFAYGGAAPVMSGTVVLDMNRMNRILEVNEEFGYALVEPGVSYFELYDYIQEKGLKLWIDVPDTGWGSVVGNALDHGIGYTPYGDHFAMQCGMEVVLPNGEVVRTGMGAMPGNNTWQLFKYGYGPYVDGIFSQSNFGVVTKMGIWLMPEPAGYRPYLITFENEDDIETVTERLRPLKVAGVIQNGATVRSLVLDAAITRTKSQYYDGDGPIPPSVAKTMMADLDLGMWNFCGALYGPPPVMDTLWTAIRDSFADIPGVKFYFPEDRRHKVDLLLHRAETMKGVPKLTEFNFLNWDGGGGHVGFSPVSPITGKDAIKQYNMVSSRVREYGFDYMGLLAIGWRDLHHVTVIVYDKTDPDERKKLDELFNILVDEAAAEGYGEYRTHIRYMDRIAKTYSWNDNALWKMHETIKDALDPNGILAPGKSGIWGKNRRKA
notes: as for B2
B5: VAD (vanillyl-alcohol dehydrogenase from Marinicaulis flavus) (Hyphococcus luteus) (protein)
chain: MAAPLPEGVSAEAMSSALDRFARIVGADWVFTEDKITPYEDPYTISNDETEHRPYAAVAPASTEEVQEIVRVANEFGVPLWPVSRGKNFAYGGAAPVMSGTVVLDMNRMNRILEVNEEFGYALVEPGVSYFELYDYIQEKGLKLWIDVPDPGWGSVVGNALDHGIGYTPYGDHFAMQCGMEVVLPNGEVVRTGMGAMPGNNTWQLFKYGYGPYVDGIFSQSNFGVVTKMGIWLMPEPAGYRPYLITFENEDDIETVTERLRPLKVAGVIQNGATVRSLVLDAAITRTKSQYYDGDGPIPPSVAKTMMADLDLGMWNFCGALYGPPPVMDTLWTAIRDSFADIPGVKFYFPEDRRHKVDLLLHRAETMKGVPKLTEFNFLNWDGGGGHVGFSPVSPITGKDAIKQYNMVSSRVREYGFDYMGLLAIGWRDLHHVTVIVYDKTDPDERKKLDELFNILVDEAAAEGYGEYRTHIRYMDRIAKTYSWNDNALWKMHETIKDALDPNGILAPGKSGIWGKNRRKA
notes: as for B2
B6: VAD (vanillyl-alcohol dehydrogenase from Marinicaulis flavus) (Hyphococcus luteus; P151G) (protein)
chain: MAAPLPEGVSAEAMSSALDRFARIVGADWVFTEDKITPYEDPYTISNDETEHRPYAAVAPASTEEVQEIVRVANEFGVPLWPVSRGKNFAYGGAAPVMSGTVVLDMNRMNRILEVNEEFGYALVEPGVSYFELYDYIQEKGLKLWIDVPDGGWGSVVGNALDHGIGYTPYGDHFAMQCGMEVVLPNGEVVRTGMGAMPGNNTWQLFKYGYGPYVDGIFSQSNFGVVTKMGIWLMPEPAGYRPYLITFENEDDIETVTERLRPLKVAGVIQNGATVRSLVLDAAITRTKSQYYDGDGPIPPSVAKTMMADLDLGMWNFCGALYGPPPVMDTLWTAIRDSFADIPGVKFYFPEDRRHKVDLLLHRAETMKGVPKLTEFNFLNWDGGGGHVGFSPVSPITGKDAIKQYNMVSSRVREYGFDYMGLLAIGWRDLHHVTVIVYDKTDPDERKKLDELFNILVDEAAAEGYGEYRTHIRYMDRIAKTYSWNDNALWKMHETIKDALDPNGILAPGKSGIWGKNRRKA
notes: as for B2
B7: VAD (vanillyl-alcohol dehydrogenase from Marinicaulis flavus) (Hyphococcus luteus; P151L) (protein)
chain: MAAPLPEGVSAEAMSSALDRFARIVGADWVFTEDKITPYEDPYTISNDETEHRPYAAVAPASTEEVQEIVRVANEFGVPLWPVSRGKNFAYGGAAPVMSGTVVLDMNRMNRILEVNEEFGYALVEPGVSYFELYDYIQEKGLKLWIDVPDLGWGSVVGNALDHGIGYTPYGDHFAMQCGMEVVLPNGEVVRTGMGAMPGNNTWQLFKYGYGPYVDGIFSQSNFGVVTKMGIWLMPEPAGYRPYLITFENEDDIETVTERLRPLKVAGVIQNGATVRSLVLDAAITRTKSQYYDGDGPIPPSVAKTMMADLDLGMWNFCGALYGPPPVMDTLWTAIRDSFADIPGVKFYFPEDRRHKVDLLLHRAETMKGVPKLTEFNFLNWDGGGGHVGFSPVSPITGKDAIKQYNMVSSRVREYGFDYMGLLAIGWRDLHHVTVIVYDKTDPDERKKLDELFNILVDEAAAEGYGEYRTHIRYMDRIAKTYSWNDNALWKMHETIKDALDPNGILAPGKSGIWGKNRRKA
notes: as for B2
B8: VAD (vanillyl-alcohol dehydrogenase from Marinicaulis flavus) (Hyphococcus luteus; P151N) (protein)
chain: MAAPLPEGVSAEAMSSALDRFARIVGADWVFTEDKITPYEDPYTISNDETEHRPYAAVAPASTEEVQEIVRVANEFGVPLWPVSRGKNFAYGGAAPVMSGTVVLDMNRMNRILEVNEEFGYALVEPGVSYFELYDYIQEKGLKLWIDVPDNGWGSVVGNALDHGIGYTPYGDHFAMQCGMEVVLPNGEVVRTGMGAMPGNNTWQLFKYGYGPYVDGIFSQSNFGVVTKMGIWLMPEPAGYRPYLITFENEDDIETVTERLRPLKVAGVIQNGATVRSLVLDAAITRTKSQYYDGDGPIPPSVAKTMMADLDLGMWNFCGALYGPPPVMDTLWTAIRDSFADIPGVKFYFPEDRRHKVDLLLHRAETMKGVPKLTEFNFLNWDGGGGHVGFSPVSPITGKDAIKQYNMVSSRVREYGFDYMGLLAIGWRDLHHVTVIVYDKTDPDERKKLDELFNILVDEAAAEGYGEYRTHIRYMDRIAKTYSWNDNALWKMHETIKDALDPNGILAPGKSGIWGKNRRKA
notes: as for B2

Columns and labels:
Test in all cases: purified protein
purified protein [1] = substrate: COc1cc(CO)ccc1O; assay type: biochemical, Rhodococcus jostii; conditions: molecular oxygen as acceptor, 25 °C, 50 mM potassium phosphate pH 7.5, 150 mM NaCl
purified protein [2] = substrate: COc1cc(CO)ccc1O; assay type: biochemical, Hyphococcus luteus; conditions: 100 μM DCPIP as acceptor, 25 °C, 50 mM potassium phosphate pH 7.5, 150 mM NaCl
purified protein [3] = substrate: C=CCc1ccc(O)c(OC)c1; assay type: biochemical, Hyphococcus luteus; conditions: 100 μM DCPIP as acceptor, 25 °C, 50 mM potassium phosphate pH 7.5, 150 mM NaCl
purified protein [4] = substrate: COCc1ccc(O)cc1; assay type: biochemical, Hyphococcus luteus; conditions: 100 μM DCPIP as acceptor, 25 °C, 50 mM potassium phosphate pH 7.5, 150 mM NaCl
purified protein [5] = substrate: OCc1ccc(O)cc1; assay type: biochemical, Hyphococcus luteus; conditions: 100 μM DCPIP as acceptor, 25 °C, 50 mM potassium phosphate pH 7.5, 150 mM NaCl

Protein	Km (purified protein [2]) [µM]	kcat (purified protein [2]) [s⁻¹]	kcat/Km (purified protein [2]) [M⁻¹ s⁻¹]	further results
B1				Km (purified protein [1]): 204.4 ± 28.9 µM; kcat (purified protein [1]): 9.68 ± 0.43 s⁻¹; kcat/Km (purified protein [1]): 47400 M⁻¹ s⁻¹
B2	37.5 ± 9.2	0.73 ± 0.04	19000	
B3	42.2 ± 6.6	0.90 ± 0.04	21000	
B4	17.6 ± 5.5	0.48 ± 0.03	27000	
B5	74.2 ± 12.4	0.44 ± 0.02	6000	Km (purified protein [3]): 51.2 ± 13.1 µM; kcat (purified protein [3]): 0.81 ± 0.06 s⁻¹; kcat/Km (purified protein [3]): 16000 M⁻¹ s⁻¹; Km (purified protein [4]): 330 ± 40 µM; kcat (purified protein [4]): 0.06 ± 0.003 s⁻¹; kcat/Km (purified protein [4]): 200 M⁻¹ s⁻¹; Km (purified protein [5]): 208 ± 9 µM; kcat (purified protein [5]): 0.25 ± 0.01 s⁻¹; kcat/Km (purified protein [5]): 1200 M⁻¹ s⁻¹
B6	316.5 ± 39.7	1.49 ± 0.07	5000	
B7	72.4 ± 6.3	0.76 ± 0.02	10500	
B8	151 ± 24	0.14 ± 0.07	1000	
